According to the supplement of paper PMC9170038:

Tested on: MS2 coat protein
Assay: apparent KD of MS2 coat protein; designed switch direction (-1 OFF switch, 1 ON switch): -1; higher = weaker reporter binding
Procedure, shortened: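 The reported apparent KD is a per-design median over clusters, from curve fits of normalised cluster fluorescence. Protein titrations used SNAP-549-labelled MS2 coat protein, doubled from 0.7 or 1.5 nM to 3 µM, in Tris-HCl pH 7.5 buffer with KCl, MgCl2, BSA, DTT, tRNA and Tween-20, with no input, 200 uM small-molecule ligand, or an oligonucleotide input. The RNA switches were transcribed on Illumina chips by stalled E. coli RNA polymerase.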

[1] = input ligand: microRNA oligo, concentration not stated
[2] = Eterna round: R95, input ligand: microRNA oligo, concentration not stated
[3] = Eterna round: R95, input ligand: FMN 200 uM
[4] = Eterna round: R95, input ligand: none

Row | Sequence | apparent KD of MS2 coat protein (input ligand: FMN 200 uM) [nM] | apparent KD of MS2 coat protein [1] [nM] | apparent KD of MS2 coat protein (input ligand: none) [nM] | apparent KD of MS2 coat protein [2] [nM] | apparent KD of MS2 coat protein [3] [nM] | apparent KD of MS2 coat protein [4] [nM]
1 | AUUGUUUAUGUAGGAUAUGCCUGGCGUGCCUUUGCAGAAGGACAUGAGGAUCACCCAUGUAACAUGAGGCUCACCCAUGUCGCA [salish99_ExNG1_r04_113] (Eterna round: R96, puzzle: Exclusion NG 1) | 481 | 255 | 429 |  |  | 
2 | AAAAGAUAAGGAUAUUGAAGGUUCGACAUGAGGAUCACCCAUGUUAUGUUGGAAAAGGGACAAGAAGGUAUGAAAU [salish99_ex5_r4_202] (Eterna round: R97, puzzle: Exclusion 5) | 28.6 |  | 29.1 |  |  | 
3 | UAUUAGCAAGCAAGAUCCCACAUGAGGAUCACCCAUGUGCUCGUCUUAAGCCCAGAAUUACUGGGCGCUCGUCUUAU [Winner reversed engineered 22] (Eterna round: R97, puzzle: Sensor, turn-off variant 1) | 30.3 |  | 28.4 |  |  | 
4 | UUCGUGCUGCUUUGCUGUACGAGUACAUGAGGAUCACCCAUGUAGGAUAUGGUUCGCUUUGCGUGCUAGAAGGAUAUGUGUUGC [salish99_ExNG3_r04_507] (Eterna round: R96, puzzle: Exclusion NG 3) | 26.2 | 17.8 | 26 |  |  | 
5 | ACAUGUUGUCCAUGAUAUUACAUGAGGAUCACCCAUGUUAUUGUGAUUUUGAUGUGUAAGUUUGUUGCUCGUCUUAU [JR_STOV1_Sub063] (Eterna round: R97, puzzle: Sensor, turn-off variant 1) | 29.8 |  | 29.4 |  |  | 
6 | GCCUUAUCUGUCAGGAUAUACAAUAAAAUUUUUUUGUAGAAGGGACAUGAGGAUCACCCAUGUACAUUACAUUG [alecazam22] (Eterna round: R97, puzzle: Brourd's mod of Exclusion 4) | 315 |  | 49.7 |  |  | 
7 | GAGCCUAAUGUAGGAUAUCGAGGUCGGUGACGUCGAGAAGGACAUGAGGAUCACCCAUGUCGUAGCGGCGGGAACGCUGCUACG [first try -36 kcal] (Eterna round: R96, puzzle: Exclusion NG 1) | 82.9 | 147 | 274 |  |  | 
8 | ACAACAAGCUUUUUGUUCGUAGAACAUGAUGCUCUAGUCACAUGAGGAUCACCCAUGUCAGCCAGUUAGAUAGGUGA [JR_SV3TOV2_Sub064] (Eterna round: R96, puzzle: Sensor v3, turn-off variant 2) | 96.7 | 133 | 86 |  |  | 
9 | AGGUCCUUCUGGAGACAUGAGGAUCACCCAUGUCGAGUCAGCGAGGAUAUCGGUUAAUAAUGUGAUGAGAAGGCGCGGACCGAU [Ex NG3 #54] (Eterna round: R96, puzzle: Exclusion NG 3) | 41.5 | 11.6 | 19.3 |  |  | 
10 | CUGAGUGGAGGAUAUACAUGAGGAUCACCCAUGUAAAGUAGCUUGCGUACAGGCAGAUGUAGAAGGUCAUUCGG [Mod of JL 12 - Jieux - Exclusion 3] (Eterna round: R97, puzzle: Exclusion 3) | 28.2 |  | 10.3 |  |  | 
11 | GGCAUACCACAAGCUUUUUACAUGAGGAUCACCCAUGUGGUUUUUAGUCUUAUCCCGGGCCCGAUAUCGGGCCCGGG [-33.9, -54.7, A 19%] (Eterna round: R97, puzzle: Sensor, turn-off variant 1) | 36.7 |  | 38.3 |  |  | 
12 | CUUUUGUGAGGAUAUCAGGUGUGCUAGCGUACUGGUACAUCUGAGAAGGCACAUGAGGAUCACCCAUGUUCCUU [JL-ex4-3.18 Brourd mod] (puzzle: Exclusion 4) |  |  |  | 13.5 |  | 
13 | CGGCUGUGAGGAUAUGCCAGGCCGGGCACUCCGCCGCCAGCGCAGAAGGCACAUGAGGAUCACCCAUGUCAAAG [Eternabot (L2) Solution 82] (Eterna round: R97, puzzle: Exclusion 4) | 27.5 |  | 23.9 |  |  | 
14 | UUAAUGGCUGUGAGGAUAUCGGAUAGAUAGAUAUUCGAGAAGGCACAUGAGGAUCACCCAUGUGUGAUCAGAGA [Brourd's EX4 #62] (Eterna round: R97, puzzle: Brourd's mod of Exclusion 4) | 466 |  | 144 |  |  | 
15 | AGCUAGUCAGGAUAUACAAACAUGUCAAAAGACGUGAAGAGACAUGAGGAUCACCCAUGUAGAAGGGACUAGCA [Mat - Exclusion 2 - JL mod - D13] (Eterna round: R96, puzzle: Exclusion 2) | 88.1 | 15.7 | 22.9 |  |  | 
16 | UUAAAUCAUGUAGGAUAUGCGUGGCGAAGCUAUGCAGAAGGACAUGAGGAUCACCCAUGUGCUAGCGUCUGCGUACAGAUGCAA [JL ENG1 1.11] (Eterna round: R96, puzzle: Exclusion NG 1) | 189 | 65.2 | 76.7 |  |  | 
17 | CCCGUGUGAGGAUAUACUCUAAGCAUUGACAGUUGCUACAGGUAGAAGGCACAUGAGGAUCACCCAUGUCCCGG [EX4 C.13] (Eterna round: R97, puzzle: Exclusion 4) | 66 |  | 295 |  |  | 

Row | Sequence | apparent KD of MS2 coat protein (input ligand: FMN 200 uM) [nM] | apparent KD of MS2 coat protein [1] [nM] | apparent KD of MS2 coat protein (input ligand: none) [nM] | apparent KD of MS2 coat protein [2] [nM] | apparent KD of MS2 coat protein [3] [nM] | apparent KD of MS2 coat protein [4] [nM]
18 | AAGAAACGAGGAUAUACAAUUAAGAGAGAGAAGGAAAUGAGACAUGAGGAUCACCCAUGUAGAAGGCGUAAGAA [JR_Exclu2_Sub082] (puzzle: Exclusion 2) |  |  |  | 31.1 | 27.6 | 26.5
19 | UAAUUAAUUAAUAAAUAAUACAUGAGGAUCACCCAUGUAGAUCCUACAUACAAUUUAAGUAGCUCGUCUUAUUAUUA [Sensor-V1 #61] (Eterna round: R97, puzzle: Sensor, turn-off variant 1) | 200 |  | 255 |  |  | 
20 | UUGACGUCGUCAGGAUAUAGUUUUAAUGUCAUGCGUAUGUUCUUACAUGAGGAUCACCCAUGUCGCUAGAAGGGACUAAAGAUU [JR_ExcNG2_Sub011] (Eterna round: R96, puzzle: Exclusion NG 2) | 27.6 | 23.5 | 34.7 |  |  | 
21 | UUAACCAGAGGAUAUGCGAAUAAAUAAAACUUUUUUUUUUAACAUGAGGAUCACCCAUGUAGAAGGCUGCAAUU [Ex2 #31] (Eterna round: R97, puzzle: Exclusion 2) | 32 |  | 46.8 |  |  | 
22 | ACUUACUGAGGAUAUACAUAGAUUUACAUGAGGAUCACCCAUGUUCCUCUAAGUAUAUAUGUAGAAGGCAGAAGAG [Mat - Exclusion 5 - JL Mod - D40] (Eterna round: R97, puzzle: Exclusion 5) | 172 |  | 145 |  |  | 
23 | CUAAUACAUCAGGAUAUGUGUCGUGAUAGCGACACAGAAGGGAUGACAUGAGGAUCACCCAUGUCAAAGGGUGA [eternacac ex6r4 sub23] (Eterna round: R97, puzzle: Exclusion 6) | 388 |  | 519 |  |  | 
24 | GGUUGGCGAGGAUAUACAUGAGGAUCACCCAUGUGGUCCUAAGGCUGAUCAAGCCUAUGUAGAAGGCGCAAAUC [salish99_ex3_r4_010] (Eterna round: R97, puzzle: Exclusion 3) | 37.7 |  | 223 |  |  | 
25 | UCAAUUUUGCGAGGAUAUCGACCAUUCCUCUUUACAUGAGGAUCACCCAUGUUCUUUUUCUACAACGAGAAGGCGCUCAUAGUU [JR_ExcNG2_Sub063] (Eterna round: R96, puzzle: Exclusion NG 2) |  | 56.2 |  |  |  | 
26 | AAUAAUCAUGUAGGAUAUGCGUGGCAAAGCUAUGCAGAAGGACAUGAGGAUCACCCAUGUUCUAGCGUCUGAGAACAGAUGCUA [Mat - Exclusion NG 1 - Mod of JL - D82] (Eterna round: R96, puzzle: Exclusion NG 1) | 384 | 30.2 | 41.5 |  |  | 
27 | AUUCCUCCUGUUAGGAUAUGCAUCGGGCUUCCGCAGCAGAAGGAACAUGAGGAUCACCCAUGUCAAAUAAAAUC (Eterna round: R97, puzzle: Brourd's mod of Exclusion 4) | 231 |  | 30.2 |  |  | 
28 | GGAAUACAUGAGGAUCACCCAUGUAAGGAUAUGCUGAAUAACACGGAAUAAUCGUGCAGCAGAAGGUACAAAGG [Mat - Mod of my Eli Mod D45] (puzzle: Exclusion 1) |  |  |  | 86.3 |  | 
29 | AAAACGGUUCUCGUGAGGUACAUGAGGAUCACCCAUGUGAGUCAGGAUAUCCCGUCCAAGUGCGAGGAGAAGGGACGCACUUGG [Esesence] (Eterna round: R96, puzzle: Exclusion NG 3) | 190 | 103 | 110 |  |  | 
30 | CAGUGACAUGAGGAUCACCCAUGUUAGGAUAUCCGCAAAGGGAGUAGGAUUCCCAUUUGGAGAAGGGACAGGUG [Eternabot (L1) Solution 95] (Eterna round: R97, puzzle: Exclusion 1) | 72.5 |  | 52.6 |  |  | 
31 | AAGAAACAUGAGGAUCACCCAUGUGAGGAUAUGUAAAGAAAAGAAAAAGAAAAGAAAAACAGAAGGCACAAAGA [JR_Exclusion1_Sub001] (puzzle: Exclusion 1) |  |  |  | 43.6 | 38.7 | 34
32 | CGAUGUUAUGUCAGGAUAUGCGUUGCGAAAGCGAUGCAGAAGGGACAUGAGGAUCACCCAUGUCCUAACCAUCG [Omei A 7] (puzzle: Brourd's mod of Exclusion 4) |  |  |  | 10.7 |  | 
33 | AGUAACUAUCACGAAAGUGAUAGUUACAAAACAAGUGAAACAUGAGGAUCACCCAUGUCCUCAUUUGCUCGUCUUAU [Sensor 3 - 2] (puzzle: Sensor v3, turn-off variant 2) |  |  |  | 257 | 118 | 189
